The test addresses T1, recombinant IGFBP-3 protein (rBP3) of the in vitro binding assays with vimentin domains (human, UniProt P17936 28-291).
T1 construct: IGFBP-3, human, recombinant protein; by the pull-down methods it may be the purified His-IGFBP-3; source: recombinant
Description: pull-down; in vitro binding: glutathione-agarose-bound GST-vimentin (full-length, domains or deletion mutants) incubated with purified recombinant IGFBP-3 or its C-terminal domain; TNE binding buffer, 4 °C; Western blot. The conditions noted are these: both partners purified.

T1 sequence (P17936 28-291): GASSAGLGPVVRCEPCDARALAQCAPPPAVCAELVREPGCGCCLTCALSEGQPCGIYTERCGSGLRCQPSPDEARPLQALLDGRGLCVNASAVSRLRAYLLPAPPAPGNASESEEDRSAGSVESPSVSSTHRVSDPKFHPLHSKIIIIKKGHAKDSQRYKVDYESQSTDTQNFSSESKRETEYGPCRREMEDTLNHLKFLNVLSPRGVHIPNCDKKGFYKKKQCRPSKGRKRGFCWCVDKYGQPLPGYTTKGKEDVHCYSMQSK

B1: GST-tagged vimentin coiled-coil domain deletion mutant ΔCC (1-101 linked with 411-467 aa) (domain or fragment, human, UniProt P08670 1-466, looked up)
chain: MSTRSVSSSSYRRMFGGPGTASRPSSSRSYVTTSTRTYSLGSALRPSTSRSLYASSPGGVYATRSSAVRLRSSVPGVRLLQDSVDFSLADAINTEFKNTRTISLPLPNFSSLNLRETNLDSLPLVDTHSKRTLLIKTVETRDGQVINETSQHHDDLE
notes: vimentin, human, head domain (1-101) ligated to tail domain (411-467 as printed); source: bacterial expression (pGEX-4T-2), recombinant
As for B1, the binding result is recorded as “binds”.

B2: GST-tagged head domain of vimentin (1-101 aa) (domain or fragment, human, UniProt P08670 1-101, looked up)
chain: MSTRSVSSSSYRRMFGGPGTASRPSSSRSYVTTSTRTYSLGSALRPSTSRSLYASSPGGVYATRSSAVRLRSSVPGVRLLQDSVDFSLADAINTEFKNTRT
notes: vimentin, human, head domain, residues 1-101; source: bacterial expression (pGEX-4T-2), recombinant
With B2, the binding result is recorded as “binds”.

The record behind these values is paper PMC7958122, “Insulin-Like Growth Factor Binding Protein-3 Exerts Its Anti-Metastatic Effect in Aerodigestive Tract Cancers by Disrupting the Protein Stability of Vimentin” (Cancers, 2021).
